Measured values published in patent US10215752.

Target: His-tag GafD lectin (Escherichia coli) (UniProt Q47341)
Test: concentration dependent nIR fluorescence loading curves, ks against concentration, GafD on Ni-NTA SWNT/chitosan sensor

Chain of His-tag GafD lectin (Escherichia coli) (Q47341 23-200 limits assumed): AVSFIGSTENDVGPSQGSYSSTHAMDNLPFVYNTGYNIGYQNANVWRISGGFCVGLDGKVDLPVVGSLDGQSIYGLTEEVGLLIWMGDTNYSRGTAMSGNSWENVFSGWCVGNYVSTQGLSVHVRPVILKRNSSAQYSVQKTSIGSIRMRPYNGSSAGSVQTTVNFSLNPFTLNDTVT

Kd: 4 µM
koff: 0.0082 s⁻¹
Substance: murine produced anti His-tag antibody (Sigma H1029)
